According to patent US20230095004 (Aptitude Medical Systems, Inc., published 2023):

T1: VEGF-165 (VEGF-A) (Homo sapiens)
T1 chain: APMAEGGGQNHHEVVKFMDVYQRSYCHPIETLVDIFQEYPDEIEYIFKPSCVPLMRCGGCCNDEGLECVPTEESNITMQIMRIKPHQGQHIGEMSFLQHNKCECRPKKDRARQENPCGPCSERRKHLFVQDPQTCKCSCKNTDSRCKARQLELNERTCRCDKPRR

B1: AMSB107.12 (ssRNA)
RNA: CUGUACAGUUUUACCAGUGAGUCGGAUCUCCGCAUAGAUAAGCCAACAAACGUACAUUCUCUGUUAGUAUUUUCUGCG
modifications: 2'-F all
B2: AMSB107.21 (ssRNA)
RNA: UGCAUGCAUUUUACCAGUGAGUCGGAUCUCCGCAUAGAUAAGCCAACAAACGUACAUUCUCUGUUAGUAUUUUCUGCG
modifications: 2'-F with 2'-OMe in stems as printed
B3: AMSB107.18 (ssRNA)
RNA: UGCAUGCAUUUUACCAGUGAGUCGGAUCUCCGCAUAGAUAAGCCAACAAACGUACAUUCUCUGUUAGUAUUUUCUGCG
modifications: 2'-F with LNA (L) at positions as printed
B4: AMSB107.20 (ssRNA)
RNA: UGCAUGCAUUUUACCAGUGAGUCGGAUCUCCGCAUAGAUAAGCCAACAAACGUACAUUCUCUGUUAGUAUUUUCUGCG
modifications: 2'-F with LNA (L) in stems as printed
B5: AMSB107.8 (ssRNA)
RNA: UUUUGCAUGCAUUUUACCAGUGAGUCGGAUCUCCGCAUAGAUAAGCCAACAAACGUACAUUCUCUGUUAGUAUUUUCUGCG
modifications: 2'-F all
B6: AMSB107.1 (ssRNA)
RNA: UGCCAGUGAGUCGGAUCUCCGCAUAGAUAAGCCAACAAACGUACAUUCUCUGUUAGUAUUUUCUGCG
modifications: 2'-F all
B7: AMSB107.14 (ssRNA)
RNA: UGCACUGCAUUUUACCAGUGAGUCGGAUCUCCGCAUAGAUAAGCCAACAAACGUACAUUCUCUGUUAGUAUUUUCUGCG
modifications: 2'-F all
B8: AMSB107.6 (ssRNA)
RNA: UGCAUGCAACCAGUGAGUCGGAUCUCCGCAUAGAUAAGCCAACAAACGUACAUUCUCUGUUAGUAUUUUCUGCG
modifications: 2'-F all
B9: AMSB107.2 (ssRNA)
RNA: UGCCAGUGAGUCGGAUCUCCACAGUAGAUAAGCCAACAAACGUACAUUCUCUGUUAGUAUUUUCCUGUG
modifications: 2'-F all
B10: AMS0433.13 (ssRNA)
RNA: UUUUGUGCUUGCGUAGCAACCCUCCAGUGAGUCGGAUCUCCGCAUAUCUGCG
modifications: 2'-F all
B11: AMS0433.3 (ssRNA)
RNA: ACCCUUGCUUGCGUAGCAUUCUGCCAGUGAGUCGGAUCUCCGCAUAUCUGCG
modifications: 2'-F all nucleotides
B12: AMS0433.4 (ssRNA)
RNA: ACCCUUGCUUGCGCAGCAUUCUGCCAGUGAGUCGGAUCUCCGCAUAUCUGCG
modifications: 2'-F all nucleotides
B13: AMS0433.3 (ssRNA)
RNA: ACCCUUGCUUGCGUAGCAUUCUGCCAGUGAGUCGGAUCUCCGCAUAUCUGCG
modifications: 2'-F all
B14: AMS0433.1 (ssRNA)
RNA: ACCCUUGCUUGCGUAGCAUUUUACCAGUGAGUCGGAUCUCCGCAUAUCUGCG
modifications: 2'-F all
B15: AMS0433.4 (ssRNA)
RNA: ACCCUUGCUUGCGCAGCAUUCUGCCAGUGAGUCGGAUCUCCGCAUAUCUGCG
modifications: 2'-F all
B16: AMS0433.5 (ssRNA)
RNA: CACCAUGCUUGCGUAGCAUCAUCCAGUGAGUCGGAUCUCCGCAUAUCUGCG
modifications: 2'-F all
B17: AMSB107.11 (ssRNA)
RNA: UGCAUGCAUUUUCCAGUGAGUCGGAUCUCCGCAUAGAUAAGCCAACAAACGUACAUUCUCUGUUAGUAUUUUCUGCG
modifications: 2'-F all
B18: AMSB107.4 (ssRNA)
RNA: GCAUGCUUUUACCAGUGAGUCGGAUCUCCGCAUAGAUAAGCCAACAAACGUACAUUCUCUGUUAGUAUUUUCUGCG
modifications: 2'-F all
B19: AMSB107.9 (ssRNA)
RNA: UGCAUGCAUUACCAGUGAGUCGGAUCUCCGCAUAGAUAAGCCAACAAACGUACAUUCUCUGUUAGUAUUUUCUGCG
modifications: 2'-F all
B20: AMSB107.5 (ssRNA)
RNA: AUGCAUGCAUUUUUACCAGUGAGUCGGAUCUCCGCAUAGAUAAGCCAACAAACGUACAUUCUCUGUUAGUAUUUUCUGCG
modifications: 2'-F all
B21: AMSB107.10 (ssRNA)
RNA: UGCAUGCAUUUUUUACCAGUGAGUCGGAUCUCCGCAUAGAUAAGCCAACAAACGUACAUUCUCUGUUAGUAUUUUCUGCG
modifications: 2'-F all
B22: AMSB107.13 (ssRNA)
RNA: CCGGUACCGGUUUUACCAGUGAGUCGGAUCUCCGCAUAGAUAAGCCAACAAACGUACAUUCUCUGUUAGUAUUUUCUGCG
modifications: 2'-F all
B23: AMSB107.17 (ssRNA)
RNA: GCUGUACAGCUUUUACCAGUGAGUCGGAUCUCCGCAUAGAUAAGCCAACAAACGUACAUUCUCUGUUAGUAUUUUCUGCG
modifications: 2'-F all
B24: AMSB107.15 (ssRNA)
RNA: UGCAUCUGCAUUUUACCAGUGAGUCGGAUCUCCGCAUAGAUAAGCCAACAAACGUACAUUCUCUGUUAGUAUUUUCUGCG
modifications: 2'-F all
B25: AMS0433.11 (ssRNA)
RNA: CACAGAGAACUGUGCCUAGCAUUUUGCCAGUGAGUCGGAUCUCCGCAUAUCUGCG
modifications: 2'-F all

Assays:
VEGF-165 (VEGF-A) [1] = biological target: T1, VEGF-165 (VEGF-A); assay: flow; PBSMCT, 37 C; conditions: tags: recombinant; chain copies: 2; label: biotin
VEGF-121 (VEGF-A) = VEGF-121 (VEGF-A) (Homo sapiens, UniProt P15692 SEQ:1-121); assay: flow; PBSMCT, 37 C; conditions: tags: recombinant; chain copies: 2; label: biotin
VEGF-165 (VEGF-A) [2] = biological target: T1, VEGF-165 (VEGF-A); assay: competition; VEGFR2 blocking ELISA, PBSMCT, 37 C; conditions: tags: R&D Systems 293-VE-050; chain copies: 2
VEGF-165 (VEGF-A) [3] = biological target: T1, VEGF-165 (VEGF-A); assay: competition; VEGF/VEGFR2 inhibition; conditions: tags: R&D Systems 293-VE-050; chain copies: 2

| Binder | IC50 (VEGF-165 (VEGF-A) [2]) | IC50 (VEGF-165 (VEGF-A) [3]) | further results |
| --- | --- | --- | --- |
| UUUUACCAGUGAGUCGGAUCUCUGCAUGCA (ssRNA, 2'-F all nucleotides) |  |  | Kd (VEGF-165 (VEGF-A) [1]): 6.65 nM; Kd (VEGF-121 (VEGF-A)): 10.4 nM |
| UGCACUGCAUUUUACCAGUGAGUCGGAUCUCCGCAUAUCUGCG (ssRNA, 2'-F all nucleotides) |  |  | Kd (VEGF-165 (VEGF-A) [1]): 0.359 nM; Kd (VEGF-121 (VEGF-A)): 0.475 nM |
| UGCACUGCAUUUUACCAGUGAGUCGGAUCUCCGCAUAUCUGCG (ssRNA, 2'-F all) | 0.983 nM |  |  |
| B1 |  | 1.03 nM |  |
| B2 |  | 0.063 nM |  |
| B3 |  | 0.422 nM |  |
| B4 |  | 0.068 nM |  |
| B5 |  | 0.255 nM |  |
| UGCAUCUGCAUUUUACCAGUGAGUCGGAUCUCCGCAUAUCUGCG (ssRNA, 2'-F all nucleotides) |  |  | Kd (VEGF-165 (VEGF-A) [1]): 3.81 nM; Kd (VEGF-121 (VEGF-A)): 5.73 nM |
| UGCAUCUGCAUUUUACCAGUGAGUCGGAUCUCCGCAUAUCUGCG (ssRNA, 2'-F all) | 8.34 nM |  |  |
| B6 |  | 21.5 nM |  |
| B7 |  | 3.27 nM |  |
| B8 |  | 0.551 nM |  |
| ACCCUUGCUUGCGUAGCAUUUUACCAGUGAGUCGGAUCUC (ssRNA, 2'-F all) [AMS0433.0] | 27.5 nM |  |  |
| GCUGUACAGCUUUUACCAGUGAGUCGGAUCUCCGCAUAUCUGCG (ssRNA, 2'-F all nucleotides) |  |  | Kd (VEGF-165 (VEGF-A) [1]): 0.131 nM; Kd (VEGF-121 (VEGF-A)): 0.15 nM |
| GCUGUACAGCUUUUACCAGUGAGUCGGAUCUCCGCAUAUCUGCG (ssRNA, 2'-F all) | 0.064 nM |  |  |
| CACAGAGAACUGUGUGCCAGUGAGUCGGAUCUCCGCAUAUCUGCG (ssRNA, 2'-F all) [AMS0433.7] | 8.23 nM |  |  |
| UGCCAGUGAGUCGGAUCUCCUGUGAGAACACAG (ssRNA, 2'-F all) [AMS0433.10] | 27.2 nM |  |  |
| B9 |  | 19.4 nM |  |
| UGCCAGUGAGUCGGAUCUCCGCAUAUCUGCGCGCAUAUCUGCG (ssRNA, 2'-F all nucleotides) |  |  | Kd (VEGF-165 (VEGF-A) [1]): 8.42 nM; Kd (VEGF-121 (VEGF-A)): 11.4 nM |
| UGCCAGUGAGUCGGAUCUCCGCAUAUCUGCGCGCAUAUCUGCG (ssRNA, 2'-F all) | 9.26 nM |  |  |
| B10 | 12.3 nM |  |  |
| B11 |  |  | Kd (VEGF-165 (VEGF-A) [1]): 0.837 nM; Kd (VEGF-121 (VEGF-A)): 0.921 nM |

| Binder | IC50 (VEGF-165 (VEGF-A) [2]) | IC50 (VEGF-165 (VEGF-A) [3]) | further results |
| --- | --- | --- | --- |
| B12 |  |  | Kd (VEGF-165 (VEGF-A) [1]): 0.76 nM; Kd (VEGF-121 (VEGF-A)): 1.09 nM |
| B13 | 2.1 nM |  |  |
| B14 | 1.73 nM |  |  |
| B15 | 1.96 nM |  |  |
| CCCCAUCUGCGAAGCAGUCAGCCAGUGAGUCGGAUCUCCGCAUAUCUGCG (ssRNA, 2'-F all) [AMS0433.6] | 3.49 nM |  |  |
| B16 | 2.5 nM |  |  |
| UUUUGCAUGCAUUUUACCAGUGAGUCGGAUCUCCGCAUAUCUGCG (ssRNA, 2'-F all nucleotides) |  |  | Kd (VEGF-165 (VEGF-A) [1]): 0.039 nM; Kd (VEGF-121 (VEGF-A)): 0.045 nM |
| UUUUGCAUGCAUUUUACCAGUGAGUCGGAUCUCCGCAUAUCUGCG (ssRNA, 2'-F all) | 0.044 nM |  |  |
| ACCCUUGCUUGCGUAGCAUUUUACCAGUGAGUCGGAUCUCUGCAUGCA (ssRNA, 2'-F all nucleotides) |  |  | Kd (VEGF-165 (VEGF-A) [1]): 7.34 nM; Kd (VEGF-121 (VEGF-A)): 9 nM |
| ACCCUUGCUUGCGUAGCAUUUUACCAGUGAGUCGGAUCUCUGCAUGCA (ssRNA, 2'-F all) | 2.17 nM |  |  |
| B17 |  | 0.114 nM |  |
| B18 |  | 0.081 nM |  |
| B19 |  | 0.147 nM |  |
| B20 |  | 0.081 nM |  |
| B21 |  | 0.17 nM |  |
| B22 |  | 1 nM |  |
| B23 |  | 0.083 nM |  |
| B24 |  | 15.6 nM |  |
| UUUUACCAGUGAGUCGGAUCUCUGCAUGCA (ssRNA, 2'-F all) | 1.2 nM |  |  |
| CUGUACAGUUUUACCAGUGAGUCGGAUCUCCGCAUAUCUGCG (ssRNA, 2'-F all nucleotides) |  |  | Kd (VEGF-165 (VEGF-A) [1]): 0.097 nM; Kd (VEGF-121 (VEGF-A)): 0.162 nM |
| CUGUACAGUUUUACCAGUGAGUCGGAUCUCCGCAUAUCUGCG (ssRNA, 2'-F all) | 0.056 nM |  |  |
| B25 | 29.5 nM |  |  |
| CGUAGCAUUUUGCCAGUGAGUCGGAUCUCCGCAUAUCUGCG (ssRNA, 2'-F all) [AMS0433.8] | 42.9 nM |  |  |
